Measured values from patent US11260100B2, “Compositions targeting the interaction domain between p27Kip1 and Brk and methods of use thereof to inhibit p27 Y phosphorylation and cdk4 activity” (The Research Foundation for the State University of New York, priority 2014, dated 2022).

Experiments:
MCF7 breast cancer cells = test: Proliferation with ALT and Palbociclib at IC50 concentration (FIG. 9); assay type: cell-based, human
Protocol: FIGS. 9A-9B: AltBrk Synergizes with Palbociclib. ALT, Palbociclib, or Brk alone or in combination were added to or expressed in MCF7 breast cancer cells on day 2 post plating. Drugs were added at their IC50 concentration, based on previous results. ALT is expressed from an ALT-MCF7 tetracycline inducible cell line generated in the Blain lab. When tetracycline is added to the cell culture media, ALT is expressed in these cells. Vector: no tetracycline was added, so no ALT induction was detected. (FIG. 9A) Cells were harvested and counted every two days, as a measure of proliferation. Proliferation is plotted as a percentage relative to that seen in the DMSO treated control. Drugs and media were replaced every two days. (FIG. 9B) Viability was measured by trypan blue staining, and plotted relative to viability seen in the DMSO treated control.
Additional experiments were performed assessing activity of Brk in combination with Palbociclib. The data presented in FIGS. 9A and 9B reveal that Palbociclib and Brk inhibit proliferation for 2 days, and then resistance is observed (proliferation increases). Alt maintained arrest for roughly 10 days (50% inhibition of proliferation is detected). […] Alt-Brk/Palbociclib combination leads to a more durable cell cycle arrest. Mono therapy treated cells start to become resistant between day 8-10. […]

MCF7-ALT cells = test: Long-term proliferation arrest at IC100 (FIG. 15A); assay type: cell-based, human; conditions: IC100 Palbociclib, doxycycline induced ALT, replenished every two days
Protocol: FIGS. 15A-15C: ALT and PD treatment increases senescence, a clinical goal. FIG. 15A: MCF7-ALT cells were treated with IC100 concentration of Palbociclib (PD) or doxycycline to induce ALT. Drugs were replenished every two days and proliferation was determined by cell counting as indicated. Proliferation rates were standardized to the rate of proliferation seen in DMSO treated cells (control). PD treated cells were arrested for 10 days, before escape (proliferation) was detected. ALT expressing cells were arrested for 18 days before escape (proliferation) was detected. ALT expressing and PD treated cells were arrested for 30 days, with no escape detected. […] Proliferation was assessed by counting. […] Viability was measured by trypan blue staining and the ALT expressing, PD treated cells that weren't growing were viable. […]
MCF7-ALT cells were treated with a IC100 concentration of Palbociclib (PD) or doxycycline to induce ALT. Drugs were replenished every two days and proliferation was determined by cell counting as indicated. […] PD treated cells were arrested for 10 days, before escape (proliferation) was detected. ALT expressing cells were arrested for 18 days before escape (proliferation) was detected. ALT expressing and PD treated cells were arrested for 30 days, with no escape detected. […] Proliferation was assessed by counting. […]

B1: Alt-Brk: alternative splice variant of Brk (SEQ ID NO: 17), 15 KD protein with SH3 domain, lacks kinase domain (protein, listed as Homo sapiens)
chain: MVSRDQAHLGPKYVGLWDFKSRTDEELSFRAGDVFHVARKEEQWWWATLLDEAGGAVAQGYVPHNYLAERETVESEPAGHAGCAALQDLAACRGPAAPERGGVLPQPARACELPQGPEPVPRPAAGRALPEARA
duration of proliferation inhibition / arrest (MCF7 breast cancer cells; drugs at IC50 concentration, replaced every two days): roughly 10 days | inhibition of proliferation (MCF7 breast cancer cells; during arrest): 50% | time arrested before escape (proliferation) (MCF7-ALT cells): 18 days
